Measurements published in US10098960B2, “Polymer conjugate” (UCL Business PLC, priority 2015, dated 2018).
Changes are numbered by the printed parent chain. Names and notes keep the numbering of the source. Values belong to the molecule of their own block, whether it stands above or below them.

Assays:
[1] = test system: purified IgG from patients with APS in normal human plasma (lupus anticoagulant effect); test: LA (Lupus Anticoagulant) dilute Russel Viper Venom (dRVT-plus) coagulometer assay; type: biochemical; conditions: 500 μg/ml antibody and 25 μg/ml DI; IgG from four APS patients; FIGS. 8A-8D
Experimental: LA (Lupus Anticoagulant) Dilute Russel Viper Venom (dRVT-plus) Assay:
Assay reagents were used as described in manufacturer's (Haematex) instructions.
This assay reproduces the “lupus anticoagulant” (LA) effect, a test in which antibodies from serum of patients with APS cause a measurable prolongation of clotting time under specific conditions in vitro. Purified IgG from four patients with APS (shown as FIGS. 8A-8D) was pre-incubated with the DI constructs at a molar ratio of ˜1:1 (500 μg/ml antibody and 25 μg/ml DI) before being added to normal human plasma either with or without excess phospholipid—which prevents the anticoagulant effect of the IgG. The results are expressed as ratio of clotting time in absence to that in the presence of excess phospholipid. The higher the ratio, the greater the biological effect exerted by the IgG-APS.
Plasma was thawed on ice, meanwhile the Coagulometer (CA-50, Sysmex) was allowed to warm and reagents were prepared.
Patient antibodies were purified using Protein G IgG purification kit (Pierce), as described by manufacturer's instructions. IgA antibodies are purified using Jacalin beads (Pierce), as per manufacturer's instructions. […]
Plasma was dispensed into glass vials (200 μl×2) and reagents, either low [phospholipid] […] When the clot reached 50% the timing was stopped and recorded. […]

[2] = test system: IgA binding to immobilised β2GPI; test: Competitive inhibition ELISA for IgA binding to β2GPI; parameters: species or system human; conditions: FIG. 9
Experimental: (§1) Competitive inhibition ELISA was carried out to test the ability of recombinant DI to inhibit binding of purified IgG from patients with APS to immobilised β2GPI. The assay was adapted from the standard β2GPI ELISA published by Ioannou et al., (BMC biotechnology 2006, 6:8) with the following amendments: the inhibitors were pre-incubated at concentrations ranging from 0 mg/ml to 200 μg/ml rather than 0 to 30 μM. Briefly, the test was carried out to test the ability of recombinant DI to inhibit binding of purified IgG from patients with APS to β2GPI coated on a plate. Recombinant DI was pre-incubated with patient serum prior to addition on the ELISA plate coated with β2GPI. Bound patient IgG was detected with an anti-human IgG HRP secondary antibody. Each sample was tested in duplicate.
Assays were carried out using identical methodology to Example 6 with the following alteration; an anti-human IgA secondary conjugated to HRP was used rather than an anti-human IgG secondary antibody.

[3] = test system: aPL-induced venous thrombosis formation; conditions: mouse model of APS; Ioannou et al. 2009; cited from earlier work
[4] = test system: APS IgG-induced femoral vein thrombus formation; test: In vivo mouse blood clot model (blood vessel pinch model); parameters: species or system C57BL/6 mice; conditions: recombinant wild-type DI 40 μg intraperitoneally at 0 h and 48 h; 500 μg APS IgG; femoral vein pinch at 72 h; FIG. 10
Experimental: In vivo analysis of inhibition of thrombus formation by DI was carried out in a similar manner to those described within Ioannou et al., 2009, Journal of Thrombosis and Haemostasis, 7: 833-842, In vivo inhibition of antiphospholipid antibody-induced pathogenicity utilizing the antigenic target peptide domain I of beta2-glycoprotein I: proof of concept.
C57BL/6 mice (The Jackson Laboratory, Bar Harbor, Me., USA) were used for these studies.
NHS IgG and APS IgG mean protein G purified antibody obtained from Normal Healthy Subjects or APS patients respectively.
At time 0 h, 2 control groups were untreated, whereas 3 groups of mice were injected intraperitoneally with either recombinant wild-type DI (40 μg), PEGylated wild-type DI (20 μg) or PEG alone, in phosphate-buffered saline (PBS). After 60 min, 4 groups of mice were then treated intraperitoneally with 500 μg of APS IgG, while 1 group received 500 μg of NHS IgG, both in PBS. Both of these treatments were repeated at 48 h and 49 h respectively. The APS IgG dose was the minimal amount of APS IgG antibody required to increase thrombus size beyond two standard deviations (SDs) of the mean size induced by control NHS IgG post-injury. The APS IgG/DI molar ratios were 2.3:1, 1.15:1. […] A pinch stimulus was applied and the thrombus formation was visualised using a transilluminator and measured electronically. […]

[5] = test system: binding of aPLs to immobilised native antigen; conditions: aPLs from patients with pregnancy loss and with thrombosis; Ioannou et al. 2007; cited from earlier work
[6] = test system: binding of purified IgG from patients with APS to immobilised β2GPI; test: Competitive inhibition ELISA (IgG); parameters: species or system human; conditions: 175 μg/ml of test protein
Experimental: as §1
Competitive inhibition data is generally expressed as retained binding of the antibody to the antigen on the plate in the presence of the inhibitor protein (DI-PEG or DI). […] Activities of PEGylated or non-PEGylated DI are given based on % inhibition. FIGS. 7A-7F show % inhibition data for pegylated and non-pegylated DI constructs.

- inhibition of IgA binding to β2GPI [2]: inhibits IgA binding to β2GPI
B1: wild-type DI: recombinant wild-type domain I of human β2GPI, SEQ ID NO: 2, approximately 7 kDa, unconjugated (protein, listed as Homo sapiens)
chain: GRTCPKPDDLPFSTVVPLKTFYEPGEEITYSCKPGYVSRGGMRKFICPLTGLWPINTLKCTPR
modifications: ends and bridges not checked
- inhibition of lupus anticoagulant effect (ratio of clotting time in absence to presence of excess phospholipid) [1]: inhibit this biological effect of IgG APS
- inhibition of in vivo aPL-induced venous thrombosis formation [3]: inhibit in vivo aPL-induced venous thrombosis formation
- inhibition of thrombus formation (clot size) [4]: prevented the formation of large blood clots
- inhibition of binding of aPLs to immobilised native antigen [5]: inhibit the binding of aPLs

B2: DI(D8S/D9G): variant of domain I of human β2GP1, SEQ ID NO: 3, unconjugated (protein)
chain: B1 chain with D8S, D9G
modifications: ends and bridges not checked
- inhibition of in vivo aPL-induced venous thrombosis formation [3]: inhibit in vivo aPL-induced venous thrombosis formation
- inhibition of binding of aPLs to immobilised native antigen [5]: inhibition is greater

- Retained Activity of WT DI-PEG (20 kDa) Vs WT DI (%) ([6]; Patient 1 IgG): 98.5%
- Retained Activity of WT DI-PEG (20 kDa) Vs WT DI (%) ([6]; Patient 2 IgG): 74.9%
- Retained Activity of WT DI-PEG (20 kDa) Vs WT DI (%) ([6]; Patient 3 IgG): 88.3%
- Retained Activity of WT DI-PEG (20 kDa) Vs WT DI (%) ([6]; Patient 4 IgG): 91.5%
- Retained Activity of WT DI-PEG (20 kDa) Vs WT DI (%) ([6]; Patient 5 IgG): 70%
- Retained Activity of WT DI-PEG (20 kDa) Vs WT DI (%) ([6]; Patient 6 IgG): 91.9%
B3: WT DI-PEG (20 kDa): wild-type domain I β2GPI (SEQ ID NO: 2) mono-PEGylated across a disulfide bridge with 20 kDa PEG reagent 1 (conjugate, listed as Homo sapiens)
chain: B1 chain
modifications: not fully specified (bridges); ends and bridges not checked; also: mono-PEGylated across a disulfide bridge, Cys places not given here

- Retained Activity of D8S, D9G mutant-PEG (20 kDa) Vs D8S, D9G (%) ([6]; Patient 1 IgG): 87.8%
- Retained Activity of D8S, D9G mutant-PEG (20 kDa) Vs D8S, D9G (%) ([6]; Patient 2 IgG): 70.8%
- Retained Activity of D8S, D9G mutant-PEG (20 kDa) Vs D8S, D9G (%) ([6]; Patient 3 IgG): 83.3%
- Retained Activity of D8S, D9G mutant-PEG (20 kDa) Vs D8S, D9G (%) ([6]; Patient 4 IgG): 100%
- Retained Activity of D8S, D9G mutant-PEG (20 kDa) Vs D8S, D9G (%) ([6]; Patient 5 IgG): 64%
- Retained Activity of D8S, D9G mutant-PEG (20 kDa) Vs D8S, D9G (%) ([6]; Patient 6 IgG): 100%
B4: D8S, D9G mutant-PEG (20 kDa): D8S,D9G variant domain I (SEQ ID NO: 3) mono-PEGylated with 20 kDa PEG reagent (conjugate)
chain: B1 chain with D8S, D9G
modifications: ends and bridges not checked; also: mono-PEGylated with 20 kDa PEG reagent, site not given here
